Results published in IntAct's records for PubMed 18256029.

Target: pdcd6_human PDCD6 (UniProt O75340)
Sequence (O75340 whole entry): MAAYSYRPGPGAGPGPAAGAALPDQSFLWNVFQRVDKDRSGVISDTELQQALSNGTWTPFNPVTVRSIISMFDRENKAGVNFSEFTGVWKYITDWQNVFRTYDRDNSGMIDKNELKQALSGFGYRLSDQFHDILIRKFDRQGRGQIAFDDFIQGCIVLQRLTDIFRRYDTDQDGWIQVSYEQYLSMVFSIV

Phospholipid scramblase 3 (Homo sapiens), Q9NRY6 P43A;P45A;P47A;P53A, sequence (Q9NRY6 whole entry P43A/P45A/P47A/P53A): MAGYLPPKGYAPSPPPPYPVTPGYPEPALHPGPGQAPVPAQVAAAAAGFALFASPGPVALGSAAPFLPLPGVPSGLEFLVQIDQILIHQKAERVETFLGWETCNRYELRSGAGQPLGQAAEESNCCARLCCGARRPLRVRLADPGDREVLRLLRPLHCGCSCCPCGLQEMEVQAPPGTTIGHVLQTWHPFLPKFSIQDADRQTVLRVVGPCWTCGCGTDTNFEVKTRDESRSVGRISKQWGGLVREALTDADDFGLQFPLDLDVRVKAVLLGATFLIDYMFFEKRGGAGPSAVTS
Phospholipid scramblase 3 (Homo sapiens), Q9NRY6 F49L, sequence (Q9NRY6 whole entry F49L): as the sequence (Q9NRY6 whole entry P43A/P45A/P47A/P53A) above, with A43P, A45P, A47P, F49L, A53P counted along it
Phospholipid scramblase 3 (Homo sapiens), Q9NRY6 F49A, sequence (Q9NRY6 whole entry F49A): as the sequence (Q9NRY6 whole entry P43A/P45A/P47A/P53A) above, with A43P, A45P, A47P, F49A, A53P counted along it
Phospholipid scramblase 3 (Homo sapiens), Q9NRY6 F49Y, sequence (Q9NRY6 whole entry F49Y): as the sequence (Q9NRY6 whole entry P43A/P45A/P47A/P53A) above, with A43P, A45P, A47P, F49Y, A53P counted along it
Phospholipid scramblase 3 (Homo sapiens), Q9NRY6 F49A;F52A, sequence (Q9NRY6 whole entry F49A/F52A): as the sequence (Q9NRY6 whole entry P43A/P45A/P47A/P53A) above, with A43P, A45P, A47P, F49A, F52A, A53P counted along it

Row | Substance | effect of a mutation on the interaction
1 | Phospholipid scramblase 3 (Homo sapiens), Q9NRY6 F49A | decreasing interaction
2 | Phospholipid scramblase 3 (Homo sapiens), Q9NRY6 F49A;F52A | disrupting interaction
3 | Phospholipid scramblase 3 (Homo sapiens), Q9NRY6 F49L | decreasing interaction

Continued, values first:

Row | effect of a mutation on the interaction | Substance
4 | decreasing interaction | Phospholipid scramblase 3 (Homo sapiens), Q9NRY6 F49Y
5 | decreasing interaction | Phospholipid scramblase 3 (Homo sapiens), Q9NRY6 P43A;P45A;P47A;P53A
